Assay results reported in PMC9352680, “A comprehensive thermodynamic model for RNA binding by the Saccharomyces cerevisiae Pumilio protein PUF4”.

B1: Ie_S4_P5E.1_K5.1_C5.1_H5.1_A5.1_[+6CTCTC]_F5.1_T5.1 (ssRNA)
RNA: UUUGACAACUGAUCGUUCUUUCUUGUAUUCUCUCAUUAUUCUUUCUCGAUCAGUUGUCUUU
B2: Ie_S4_P5E.1_K5.1_C5.1_H5.1_A5.1_[+7CTCTC]_F5.1_T5.1 (ssRNA)
RNA: UUUGACAACUGAUCGUUCUUUCUUGUAUUACUCUCUUAUUCUUUCUCGAUCAGUUGUCUUU
B3: Ie_S4_P5E.1_K5.1_C5.1_H5.1_A5.1_F5.1_[+10TCTCT]_T5.1 (ssRNA)
RNA: UUUGACAACUGAUCGUUCUUUCUUGUAUUAUUAUCUCUUUCUUUCUCGAUCAGUUGUCUUU
B4: Ie_S4_P5E.1_K5.1_C5.1_H5.1_A5.1_F5.1_[+9CCTCT]_T5.1 (ssRNA)
RNA: UUUGACAACUGAUCGUUCUUUCUUGUAUUAUUCCUCUAUUCUUUCUCGAUCAGUUGUCUUU
B5: Ie_S4_P5E.1_K5.1_C5.1_H5.1_A5.1_F5.1_[+9CTCTC]_T5.1 (ssRNA)
RNA: UUUGACAACUGAUCGUUCUUUCUUGUAUUAUUCUCUCAUUCUUUCUCGAUCAGUUGUCUUU
B6: Ie_S4_P5E.1_K5.1_C5.1_H5.1_A5.1_F5.1_[+8CTCTC]_T5.1 (ssRNA)
RNA: UUUGACAACUGAUCGUUCUUUCUUGUAUUAUCUCUCUAUUCUUUCUCGAUCAGUUGUCUUU
B7: Ie_S4_P5E.1_K5.1_C5.1_H5.1_A5.1_F5.1_[+8C]_T5.1 (ssRNA)
RNA: UUUGACAACUGAUCGUUCUUUCUUGUAUUAUCUAUUCUUUCUCGAUCAGUUGUCUUU
B8: Ib_S2_P3E.1_K3.1_C3.1_H3.1_[A4C]_A3.1_[A6G]_F3.1_T3.1 (ssRNA)
RNA: UUUGAUUAAUAUGAUAUCGUUCUUUCUUGUCUGUAUUCUUUCUCGAUAUCAUAUUAAUCUUU
B9: Ib_S2_P3E.1_K3.1_C3.1_H3.1_A3.1_[T5C]_[A6T]_F3.1_T3.1 (ssRNA)
RNA: UUUGAUUAAUAUGAUAUCGUUCUUUCUUGUACUUAUUCUUUCUCGAUAUCAUAUUAAUCUUU
B10: Ib_S2_P3E.1_K3.1_C3.1_H3.1_[A4C]_A3.1_[A6T]_F3.1_T3.1 (ssRNA)
RNA: UUUGAUUAAUAUGAUAUCGUUCUUUCUUGUCUUUAUUCUUUCUCGAUAUCAUAUUAAUCUUU
B11: Ic_S2_P3E.1_K3.1_C3.1_H3.1_A3.1_[T5G]_[A6T]_F3.1_T3.1 (ssRNA)
RNA: UUUGAUUAAUAUGAUAUCGUUCUUUCUUGUAGUUAUUCUUUCUCGAUAUCAUAUUAAUCUUU
B12: Ib_S2_P3E.1_K3.1_C3.1_H3.1_[A4T]_A3.1_[A6C]_F3.1_T3.1 (ssRNA)
RNA: UUUGAUUAAUAUGAUAUCGUUCUUUCUUGUUUCUAUUCUUUCUCGAUAUCAUAUUAAUCUUU
B13: Ic_S2_P3E.1_K3.1_C3.1_H3.1_A3.1_[T5C]_[A6G]_F3.1_T3.1 (ssRNA)
RNA: UUUGAUUAAUAUGAUAUCGUUCUUUCUUGUACGUAUUCUUUCUCGAUAUCAUAUUAAUCUUU
B14: Ib_S2_P3E.1_K3.1_C3.1_H3.1_A3.1_[T5A]_[A6C]_F3.1_T3.1 (ssRNA)
RNA: UUUGAUUAAUAUGAUAUCGUUCUUUCUUGUAACUAUUCUUUCUCGAUAUCAUAUUAAUCUUU
B15: Ic_S2_P3E.1_K3.1_C3.1_H3.1_A3.1_[T5C]_[A6C]_F3.1_T3.1 (ssRNA)
RNA: UUUGAUUAAUAUGAUAUCGUUCUUUCUUGUACCUAUUCUUUCUCGAUAUCAUAUUAAUCUUU
B16: Ic_S2_P3E.1_K3.1_C3.1_H3.1_A3.1_[T5A]_[A6T]_F3.1_T3.1 (ssRNA)
RNA: UUUGAUUAAUAUGAUAUCGUUCUUUCUUGUAAUUAUUCUUUCUCGAUAUCAUAUUAAUCUUU
B17: Ic_S2_P3E.1_K3.1_C3.1_H3.1_A3.1_[A6C]_F3.1_T3.1 (ssRNA)
RNA: UUUGAUUAAUAUGAUAUCGUUCUUUCUUGUAUCUAUUCUUUCUCGAUAUCAUAUUAAUCUUU
B18: Ib_S2_P3E.1_K3.1_C3.1_H3.1_[A4T]_A3.1_[A6T]_F3.1_T3.1 (ssRNA)
RNA: UUUGAUUAAUAUGAUAUCGUUCUUUCUUGUUUUUAUUCUUUCUCGAUAUCAUAUUAAUCUUU
B19: Ib_S2_P4E.1_K4.1_C4.1_H4.1_A4.1_F4.1_[T8G]_[A9G]_T4.1 (ssRNA)
RNA: UUUGAUUAAUAUGAUAUCGUUCUUUCUUGUAUAUGGUUCUUUCUCGAUAUCAUAUUAAUCUUU
B20: Ic_S2_P4E.1_K4.1_C4.1_H4.1_A4.1_F4.1_[T8G]_[A9C]_T4.1 (ssRNA)
RNA: UUUGAUUAAUAUGAUAUCGUUCUUUCUUGUAUAUGCUUCUUUCUCGAUAUCAUAUUAAUCUUU
B21: Ic_S2_P4E.1_K4.1_C4.1_H4.1_A4.1_F4.1_[T8C]_[A9C]_T4.1 (ssRNA)
RNA: UUUGAUUAAUAUGAUAUCGUUCUUUCUUGUAUAUCCUUCUUUCUCGAUAUCAUAUUAAUCUUU
B22: Ic_S2_P4E.1_K4.1_C4.1_H4.1_A4.1_F4.1_[T8C]_[A9G]_T4.1 (ssRNA)
RNA: UUUGAUUAAUAUGAUAUCGUUCUUUCUUGUAUAUCGUUCUUUCUCGAUAUCAUAUUAAUCUUU
B23: Ic_S2_P4E.1_K4.1_C4.1_H4.1_A4.1_F4.1_[T8G]_[A9T]_T4.1 (ssRNA)
RNA: UUUGAUUAAUAUGAUAUCGUUCUUUCUUGUAUAUGUUUCUUUCUCGAUAUCAUAUUAAUCUUU
B24: Ib_S2_P4E.1_K4.1_C4.1_H4.1_A4.1_F4.1_[T8A]_[A9G]_T4.1 (ssRNA)
RNA: UUUGAUUAAUAUGAUAUCGUUCUUUCUUGUAUAUAGUUCUUUCUCGAUAUCAUAUUAAUCUUU
B25: Ie_S4_P5E.1_K5.1_C5.1_H5.1_A5.1_F5.1_[+8CC]_T5.1 (ssRNA)
RNA: UUUGACAACUGAUCGUUCUUUCUUGUAUUAUCCUAUUCUUUCUCGAUCAGUUGUCUUU
B26: Ie_S4_P5E.1_K5.1_C5.1_H5.1_A5.1_F5.1_[+10TT]_T5.1 (ssRNA)
RNA: UUUGACAACUGAUCGUUCUUUCUUGUAUUAUUAUUUUCUUUCUCGAUCAGUUGUCUUU
B27: Ie_S4_P5E.1_K5.1_C5.1_H5.1_A5.1_F5.1_[+8CT]_T5.1 (ssRNA)
RNA: UUUGACAACUGAUCGUUCUUUCUUGUAUUAUCUUAUUCUUUCUCGAUCAGUUGUCUUU
B28: Ie_S4_P5E.1_K5.1_C5.1_H5.1_A5.1_[+6CCC]_F5.1_T5.1 (ssRNA)
RNA: UUUGACAACUGAUCGUUCUUUCUUGUAUUCCCAUUAUUCUUUCUCGAUCAGUUGUCUUU
B29: Ie_S4_P5E.1_K5.1_C5.1_H5.1_A5.1_F5.1_[+9CTC]_T5.1 (ssRNA)
RNA: UUUGACAACUGAUCGUUCUUUCUUGUAUUAUUCUCAUUCUUUCUCGAUCAGUUGUCUUU
B30: Ie_S4_P5E.1_K5.1_C5.1_H5.1_A5.1_F5.1_[+8TTC]_T5.1 (ssRNA)
RNA: UUUGACAACUGAUCGUUCUUUCUUGUAUUAUUUCUAUUCUUUCUCGAUCAGUUGUCUUU
B31: Ie_S4_P5E.1_K5.1_C5.1_H5.1_A5.1_F5.1_[+9CCC]_T5.1 (ssRNA)
RNA: UUUGACAACUGAUCGUUCUUUCUUGUAUUAUUCCCAUUCUUUCUCGAUCAGUUGUCUUU
B32: Ie_S4_P5E.1_K5.1_C5.1_H5.1_A5.1_[+7CCT]_F5.1_T5.1 (ssRNA)
RNA: UUUGACAACUGAUCGUUCUUUCUUGUAUUACCUUUAUUCUUUCUCGAUCAGUUGUCUUU
B33: Ie_S4_P5E.1_K5.1_C5.1_H5.1_A5.1_[+6TTC]_F5.1_T5.1 (ssRNA)
RNA: UUUGACAACUGAUCGUUCUUUCUUGUAUUUUCAUUAUUCUUUCUCGAUCAGUUGUCUUU
B34: Ie_S4_P5E.1_K5.1_C5.1_H5.1_A5.1_[+7TCT]_F5.1_T5.1 (ssRNA)
RNA: UUUGACAACUGAUCGUUCUUUCUUGUAUUAUCUUUAUUCUUUCUCGAUCAGUUGUCUUU
B35: Ie_S4_P5E.1_K5.1_C5.1_H5.1_A5.1_F5.1_[+9CCT]_T5.1 (ssRNA)
RNA: UUUGACAACUGAUCGUUCUUUCUUGUAUUAUUCCUAUUCUUUCUCGAUCAGUUGUCUUU
B36: Ie_S4_P5E.1_K5.1_C5.1_H5.1_A5.1_[+7TTT]_F5.1_T5.1 (ssRNA)
RNA: UUUGACAACUGAUCGUUCUUUCUUGUAUUAUUUUUAUUCUUUCUCGAUCAGUUGUCUUU
B37: Ie_S4_P5E.1_K5.1_C5.1_H5.1_A5.1_[+7CTT]_F5.1_T5.1 (ssRNA)
RNA: UUUGACAACUGAUCGUUCUUUCUUGUAUUACUUUUAUUCUUUCUCGAUCAGUUGUCUUU
B38: Ie_S4_P5E.1_K5.1_C5.1_H5.1_A5.1_[+7CCC]_F5.1_T5.1 (ssRNA)
RNA: UUUGACAACUGAUCGUUCUUUCUUGUAUUACCCUUAUUCUUUCUCGAUCAGUUGUCUUU
B39: Ie_S4_P5E.1_K5.1_C5.1_H5.1_A5.1_F5.1_[+10TCC]_T5.1 (ssRNA)
RNA: UUUGACAACUGAUCGUUCUUUCUUGUAUUAUUAUCCUUCUUUCUCGAUCAGUUGUCUUU
B40: Ie_S4_P5E.1_K5.1_C5.1_H5.1_A5.1_[+6TTCC]_F5.1_T5.1 (ssRNA)
RNA: UUUGACAACUGAUCGUUCUUUCUUGUAUUUUCCAUUAUUCUUUCUCGAUCAGUUGUCUUU
B41: Ie_S4_P5E.1_K5.1_C5.1_H5.1_A5.1_F5.1_[+8TTCC]_T5.1 (ssRNA)
RNA: UUUGACAACUGAUCGUUCUUUCUUGUAUUAUUUCCUAUUCUUUCUCGAUCAGUUGUCUUU
B42: Ie_S4_P5E.1_K5.1_C5.1_H5.1_A5.1_F5.1_[+9TCTC]_T5.1 (ssRNA)
RNA: UUUGACAACUGAUCGUUCUUUCUUGUAUUAUUUCUCAUUCUUUCUCGAUCAGUUGUCUUU
B43: Ie_S4_P5E.1_K5.1_C5.1_H5.1_A5.1_F5.1_[+8TCTC]_T5.1 (ssRNA)
RNA: UUUGACAACUGAUCGUUCUUUCUUGUAUUAUUCUCUAUUCUUUCUCGAUCAGUUGUCUUU
B44: Ie_S4_P5E.1_K5.1_C5.1_H5.1_A5.1_[+7CTCT]_F5.1_T5.1 (ssRNA)
RNA: UUUGACAACUGAUCGUUCUUUCUUGUAUUACUCUUUAUUCUUUCUCGAUCAGUUGUCUUU
B45: Ie_S4_P5E.1_K5.1_C5.1_H5.1_A5.1_F5.1_[+8CTCT]_T5.1 (ssRNA)
RNA: UUUGACAACUGAUCGUUCUUUCUUGUAUUAUCUCUUAUUCUUUCUCGAUCAGUUGUCUUU

Target: T1, PUF4 RNA-binding domain (Saccharomyces cerevisiae, UniProt P25339 537-888)
T1 sequence: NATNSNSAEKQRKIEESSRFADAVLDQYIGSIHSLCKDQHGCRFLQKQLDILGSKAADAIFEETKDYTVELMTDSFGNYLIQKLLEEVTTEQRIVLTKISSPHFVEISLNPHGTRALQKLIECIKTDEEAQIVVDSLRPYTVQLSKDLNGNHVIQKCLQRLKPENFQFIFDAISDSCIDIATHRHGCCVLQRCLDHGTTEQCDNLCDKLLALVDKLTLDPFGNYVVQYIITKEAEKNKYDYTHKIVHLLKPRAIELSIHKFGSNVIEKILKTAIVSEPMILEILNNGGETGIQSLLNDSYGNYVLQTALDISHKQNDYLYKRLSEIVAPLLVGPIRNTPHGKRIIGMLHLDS
Test: Mg; RNA-MaP; 20 mM Na-HEPES pH 7.4, 30 mM KOAc, 0.75 mM MgCl2, 0.1% Tween-20, 5% glycerol, 0.1 mg/mL BSA, 2 mM DTT; 25 C; 0.0125-409.6 nM protein
Settings: tags: N-His6-TEV cleaved; C-SNAP kept, Cy3B-labelled; label: tethered on chip by stalled RNA polymerase

Row | Binder | Kd [nM]
1 | B1 | 43.6
2 | B2 | 28.7
3 | B3 | 3.65
4 | B4 | 17.8
5 | B5 | 25
6 | B6 | 27.5
7 | B7 | 17.1
8 | B8 | 40.8
9 | B9 | 14.8
10 | B10 | 1200
11 | B11 | 181
12 | B12 | 472
13 | B13 | 33.1
14 | B14 | 66
15 | B15 | 10.6
16 | B16 | 72.2
17 | B17 | 8.48
18 | B18 | 576
19 | B19 | 58.6
20 | B20 | 15.4
21 | B21 | 8.44
22 | B22 | 7.89
23 | B23 | 5.99

Row | Binder | Kd [nM]
24 | B24 | 9.03
25 | UCUCUUCGUAUAUAUCUCUU (ssRNA) [Ia_S1_P3E.1_K3.1_C3.1_H3.1_[T1C]_A3.1_F3.1_T3.1] | 1180
26 | B25 | 21
27 | B26 | 2.52
28 | B27 | 16.1
29 | B28 | 60.8
30 | B29 | 29.8
31 | B30 | 12.3
32 | B31 | 10.8
33 | B32 | 66.5
34 | B33 | 32
35 | B34 | 24.9
36 | B35 | 17.6
37 | B36 | 12.5
38 | B37 | 26.8
39 | B38 | 85
40 | B39 | 5.62
41 | B40 | 19.2
42 | B41 | 21.1
43 | B42 | 18
44 | B43 | 20.1
45 | B44 | 65.1
46 | B45 | 27.8
